These results are taken from patent US20260209321A1 (SINGAPORE HEALTH SERVICES PTE, published 2026).

The target of experiment [1] is T1, Peptide-biotin.
T1 construct: also called antigen
Nature of the experiment: SPR Biacore 8K affinity ranking; antibody Fc-captured, Peptide-biotin analyte, 1:1 fit. The method, then:
For affinity ranking, antibodies were captured on the sensor chip through Fc capture method. Peptide-biotin was used as the analyte. The surface was regenerated before the injection of another antibody. The process was repeated until all antibodies are analyzed. The off-rates of antibodies were obtained from fitting the experimental data locally to 1:1 interaction model using the Biacore 8K evaluation software. The antibodies were ranked by their dissociation rate constants (off-rates, kd). Based on the ranking result, the top 3 clones were selected.
Humanized antibodies were generated by replacing the framework regions (FRs) from mouse M4M antibody with counterparts from human, while maintaining the antibody's complementarity-determining regions (CDRs) binding regions. The antibody binding affinity of the chimeric and humanized antibodies was assessed by surface plasmon resonance (SPR) as shown in Table 1. Antibody clone A1 is the chimeric antibody and antibody clones A2-7 are humanized antibodies. Based on the results obtained from SPR, humanized clone A2 has the strongest SPR signal. For affinity ranking, antibodies were captured on the sensor chip through Fc capture method. Peptide-biotin was used as the analyte. The surface was regenerated before the injection of another antibody. The process was repeated until all antibodies are analyzed. The off-rates of antibodies were obtained from fitting the experimental data locally to 1:1 interaction model using the Biacore 8K evaluation software. The antibodies were ranked by their dissociation rate constants (off-rates, kd). Based on the ranking result, the top humanized clones were selected. […] Bolded and underlined amino acids correspond to the back mutation sites in the framework regions.
In general terms: SPR reads the build-up and loss of mass on a sensor chip optically.

Experiment [2] concerns the target T1, Peptide-biotin. The experiment in a line: SPR Biacore 8K, purified IgG Fc-captured, Peptide-biotin analyte, 1:1 fit. The method, then:
The affinity of purified antibody binding to Peptide-biotin was individually determined using a Surface Plasmon Resonance (SPR) biosensor, Biacore 8K (GE Healthcare). Antibodies were captured on the sensor chip through Fc capture method. Peptide-biotin was used as the analyte. The data of dissociation (kd) and association (ka) rate constants were obtained using Biacore 8K evaluation software. The equilibrium dissociation constants (KD) were calculated from the ratio of kd over ka.

Experiment [3] concerns the target T2, human TRPM4 expressed in transfected HEK 293 cells (human, UniProt Q8TD43 1-1214).
T2 construct: whole, on cells; also called transient receptor potential melastatin 4
Nature of the experiment: immunofluorescent staining of HEK 293 cells transfected with human TRPM4; colocalization with WGA (surface TRPM4).

Experiment [4] addresses T2, human TRPM4 expressed in transfected …. The experiment in a line: cell-based or functional assay.

The Kd is the equilibrium constant for the complex coming apart. In general, koff refers to a measure of how fast the partners let go of each other. In general, kon refers to the rate constant with which the complex forms.

T2 sequence (Q8TD43 whole entry): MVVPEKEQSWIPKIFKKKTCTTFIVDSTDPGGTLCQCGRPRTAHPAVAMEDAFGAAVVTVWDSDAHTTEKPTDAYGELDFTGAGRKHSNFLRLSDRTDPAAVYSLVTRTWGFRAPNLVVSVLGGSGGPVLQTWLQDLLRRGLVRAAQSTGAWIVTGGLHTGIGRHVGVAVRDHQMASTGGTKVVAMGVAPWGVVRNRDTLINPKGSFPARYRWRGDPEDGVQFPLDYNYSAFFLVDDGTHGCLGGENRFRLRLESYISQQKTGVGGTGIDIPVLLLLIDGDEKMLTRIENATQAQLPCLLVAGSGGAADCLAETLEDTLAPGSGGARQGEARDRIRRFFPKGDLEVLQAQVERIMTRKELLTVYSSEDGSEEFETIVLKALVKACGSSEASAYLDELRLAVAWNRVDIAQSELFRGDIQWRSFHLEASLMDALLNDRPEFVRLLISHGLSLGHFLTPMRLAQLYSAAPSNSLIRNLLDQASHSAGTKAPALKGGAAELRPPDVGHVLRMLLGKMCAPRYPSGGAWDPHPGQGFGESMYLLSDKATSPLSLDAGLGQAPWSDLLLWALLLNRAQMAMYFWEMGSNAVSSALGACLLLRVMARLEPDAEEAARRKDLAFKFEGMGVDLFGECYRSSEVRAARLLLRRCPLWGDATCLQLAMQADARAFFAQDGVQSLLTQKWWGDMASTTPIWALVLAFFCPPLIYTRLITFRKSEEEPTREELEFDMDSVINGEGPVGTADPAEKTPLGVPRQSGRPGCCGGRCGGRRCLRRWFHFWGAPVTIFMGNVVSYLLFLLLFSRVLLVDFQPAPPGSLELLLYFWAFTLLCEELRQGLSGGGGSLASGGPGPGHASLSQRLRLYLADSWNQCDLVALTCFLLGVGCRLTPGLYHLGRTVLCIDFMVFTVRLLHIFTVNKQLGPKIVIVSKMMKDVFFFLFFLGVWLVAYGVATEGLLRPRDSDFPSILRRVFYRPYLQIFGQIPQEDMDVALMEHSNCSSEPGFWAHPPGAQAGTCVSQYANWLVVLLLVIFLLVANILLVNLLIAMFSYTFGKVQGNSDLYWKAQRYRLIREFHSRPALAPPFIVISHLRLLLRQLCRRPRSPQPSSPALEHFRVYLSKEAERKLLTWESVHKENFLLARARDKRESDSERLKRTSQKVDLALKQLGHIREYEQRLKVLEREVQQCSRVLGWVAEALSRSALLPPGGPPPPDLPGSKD

B1: anti-TRPM4 chimeric antibody clone A1 (VH + VL) (antibody, V domains shown)
VH: QVQLQESGPGLVKPSQSLSLTCTVTGYSITSDYAWNWIRQFPGNKLQWMGYLSYSGVTSYNPSLKGRISITRDTSKNQFFLQLSSVTPEDTATYYCARKGTYYRYEGSYWYFDVWGAGTTVTVSS
VL: DIQMNQSPSSLSASLGDTITITCHANQNIDVWLSWYQQKPGNVPKLLIYKTSNLHTGVPSRFSGSGSGTDFTLTISSLQPEDIATYYCQQGQSYPLTFGGGTKLEIK
notes: also called VH + VL (A1)
B1: in the experiment with Peptide-biotin [1], the Kd came to 4.61 nM, the koff is 0.0015 s⁻¹ and the kon was 325000 M⁻¹ s⁻¹. In the experiment with Peptide-biotin [2], this molecule had a Kd of 1.74 nM, a koff of 0.000543 s⁻¹ and a kon of 312000 M⁻¹ s⁻¹. Besides, the binding result in experiment [3] is given as “binds”.

B2: humanized anti-TRPM4 antibody clone A2 (VH1 + VL1) (antibody, human IgG1, kappa, V domains shown)
VH: QVQLQESGPGLVKPSQTLSLTCTVSGYSITSDYAWNWIRQHPGKGLEWIGYLSYSGVTSYNPSLKGRVTISVDTSKNQFSLKLSSVTAADTAVYYCARKGTYYRYEGSYWYFDVWGQGTTVTVSS
VL: DIQMTQSPSSLSASVGDRVTITCHANQNIDVWLSWYQQKPGKAPKLLIYKTSNLHTGVPSRFSGSGSGTDFTFTISSLQPEDIATYYCQQGQSYPLTFGGGTKLEIKR
notes: also called VH1 + VL1 (A2)
In the experiment with Peptide-biotin [1], B2 showed a Kd of 6.66 nM, a koff of 0.00166 s⁻¹ and a kon of 249000 M⁻¹ s⁻¹. In addition, in the experiment with Peptide-biotin [2], the affinity, expressed as Kd, was 3.16 nM; the koff worked out at 0.000605 s⁻¹; the kon came to 191000 M⁻¹ s⁻¹. In experiment [4], the “IC50 of dose-dependent inhibition of hypoxia-induced TRPM4 current increase (whole-cell patch clamp)” value stood at 1.23 µg/mL.
